Test results as given in patent publication JP2008058208A.

Target: T1, C−反応性タンパク(CRP), ヒトCRP抗原 (human) (UniProt P02741)
T1 sequence (looked up): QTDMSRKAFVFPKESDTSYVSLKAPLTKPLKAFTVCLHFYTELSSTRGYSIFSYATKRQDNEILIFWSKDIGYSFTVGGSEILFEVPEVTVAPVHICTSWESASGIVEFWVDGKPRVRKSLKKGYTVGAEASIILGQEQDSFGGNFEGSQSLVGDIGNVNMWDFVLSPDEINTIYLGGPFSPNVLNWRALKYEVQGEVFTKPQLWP
Assay: sandwich immunochromatography, His20 as capture and as gold-colloid label, read by eye after 15 min

- lowest detectable CRP concentration: 1 ng/mL
B1: 抗CRPscFv抗体No.20 (His-tagged scFv, His20) (scFv, not shown: small tags and cut ends)
scFv: MAQVKLPESGAELVKPGASVKLSCTPSGFNIKDTYIHWVRQRPGQGLEWIGRIDPANGHTRYAPKFQGKATLTADASSNTAYLHLSSLTSEDTAVYYCPRIVWYSGGYAMDYWGQGTTVTVSSGGGGSGGGGSGGGGSDIELTQSPSSMYASLGERVTITCKASQDINSYLSWFQQKPGKSPKTLIYRANRLVDGVPSRFSGSGSGQDYSLTISSLKYEDMGIYYCLQYDEFPLTFGGGTKLEIKRAA
